Experimental data as given in US11077159B2, “Compositions from halophyte plants and methods of use thereof” (KHALIFA UNIVERSITY OF SCIENCE AND TECHNOLOGY, priority 2017, dated 2021).
Values joined by “and” are separate entries in the source; they are usually repeats but may differ in a detail not shown here. Equal entries are not always repeated.

System: NHEK
Experiment: Migration/proliferation of NHEK, wound recovery by kinetic image analysis
Assay type: cell-based, human
Conditions: 10 ng/ml, single image
Description: Botanical extracts were evaluated for anti-aging, cell renewal and anti-inflammatory properties via systemic application (diluted in the culture medium) using the concentrations that were determined not toxic for skin cells (0.1 mg/ml) followed by two successive 3-fold dilutions. The matrix metalloproteinase-1 (MMP-1) assay using a specific ELISA kit was used to evaluate anti-aging properties. The migration/proliferation of NHEK using kinetic image analysis of the wound recovery was used to evaluate cell renewal properties. The IL-8 release on NHEK stimulated by PMA using a specific ELISA kit was used to evaluate anti-inflammatory properties.

B1: EGF: control (EGF) at 10 ng/ml in the wound recovery assay (protein, UniProt P01133 23-1207, looked up)
Pro-epidermal growth factor: PQHWSCPEGTLAGNGNSTCVGPAPFLIFSHGNSIFRIDTEGTNYEQLVVDAGVSVIMDFHYNEKRIYWVDLERQLLQRVFLNGSRQERVCNIEKNVSGMAINWINEEVIWSNQQEGIITVTDMKGNNSHILLSALKYPANVAVDPVERFIFWSSEVAGSLYRADLDGVGVKALLETSEKITAVSLDVLDKRLFWIQYNREGSNSLICSCDYDGGSVHISKHPTQHNLFAMSLFGDRIFYSTWKMKTIWIANKHTGKDMVRINLHSSFVPLGELKVVHPLAQPKAEDDTWEPEQKLCKLRKGNCSSTVCGQDLQSHLCMCAEGYALSRDRKYCEDVNECAFWNHGCTLGCKNTPGSYYCTCPVGFVLLPDGKRCHQLVSCPRNVSECSHDCVLTSEGPLCFCPEGSVLERDGKTCSGCSSPDNGGCSQLCVPLSPVSWECDCFPGYDLQLDEKSCAASGPQPFLLFANSQDIRHMHFDGTDYGTLLSQQMGMVYALDHDPVENKIYFAHTALKWIERANMDGSQRERLIEEGVDVPEGLAVDWIGRRFYWTDRGKSLIGRSDLNGKRSKIITKENISQPRGIAVHPMAKRLFWTDTGINPRIESSSLQGLGRLVIASSDLIWPSGITIDFLTDKLYWCDAKQSVIEMANLDGSKRRRLTQNDVGHPFAVAVFEDYVWFSDWAMPSVMRVNKRTGKDRVRLQGSMLKPSSLVVVHPLAKPGADPCLYQNGGCEHICKKRLGTAWCSCREGFMKASDGKTCLALDGHQLLAGGEVDLKNQVTPLDILSKTRVSEDNITESQHMLVAEIMVSDQDDCAPVGCSMYARCISEGEDATCQCLKGFAGDGKLCSDIDECEMGVPVCPPASSKCINTEGGYVCRCSEGYQGDGIHCLDIDECQLGEHSCGENASCTNTEGGYTCMCAGRLSEPGLICPDSTPPPHLREDDHHYSVRNSDSECPLSHDGYCLHDGVCMYIEALDKYACNCVVGYIGERCQYRDLKWWELRHAGHGQQQKVIVVAVCVVVLVMLLLLSLWGAHYYRTQKLLSKNPKNPYEESSRDVRSRRPADTEDGMSSCPQPWFVVIKEHQDLKNGGQPVAGEDGQAADGSMQPTSWRQEPQLCGMGTEQGCWIPVSSDKGSCPQVMERSFHMPSYGTQTLEGGVEKPHSLLSANPLWQQRALDPPHQMELTQ
modifications: Pro-epidermal growth factor
notes: control (EGF) at 10 ng/ml in the wound recovery assay
- Wound area (16 hours): 0.86 mm^2 and 0.69 mm^2 and 0.89 mm^2
- Wound area (24 hours): 0.64 mm^2 and 0.44 mm^2 and 0.63 mm^2
